Laboratory results taken from paper PMC10907274.
“And” between values parts separate entries of the source, which are not always exact repeats. Identical values can stand only once.

Target: Dark (wild type), auto-inhibited monomer (D. melanogaster) (UniProt Q7KLI1)
Experiment: cryo-EM structure

stoichiometry N: 6 and 8
Substance: Dark (wild type), auto-inhibited monomer (from UniProt Q7KLI1 1-1440) (natural protein)
